# Measured values: patent publication US20250236667A1, “ANTIBODIES TO MUTANT CALRETICULIN AND USES THEREOF” (CENTRAL ADELAIDE LOCAL HEALTH NETWORK INC, priority 2021, published 2025)
# B1: 4D7: rat monoclonal IgG2a antibody against the mutant CALR neoepitope; VH SEQ ID NO: 5, VL SEQ ID NO: 7 (antibody, listed as Rattus rattus, V domains shown)
# VH: QVQLQQSGAELAKPGSSVKISCKASGYTFTNYDMSWIKQRPGQALEWIGAINPGNGVTDYNEKFRGKATLTVDKSSSTAFMQLSSLTPEDTAVYHCAREYRDNYGYFDYWGQGVMVTVSS
# VL: DIVLTQTPVSLSVTLGDQASISCRSSQSLEYSDGYTYLDWFLQKPGQSPQLLIYEVSSRFSGVPDRFIGRGSGTDFTLKISRVEPEDLGVYYCFQATHDPFTFGSGTKLEIK
# Tests used:
# [1] = target: T1, mutant CALR dimers and monomers bound to TpoR in TF-1 TpoR CALR^del61 (Homo sapiens, UniProt P27797); test: TpoR immunoprecipitation under non-reducing conditions; assay type: cell-based; settings: 8 hour treatment with 20 μg/mL
# T1 construct: expressed in transfected cells; host or cells: TF-1 TpoR CALR^del61
# T1 sequence (P27797 with tags, fused parts or gaps limits assumed): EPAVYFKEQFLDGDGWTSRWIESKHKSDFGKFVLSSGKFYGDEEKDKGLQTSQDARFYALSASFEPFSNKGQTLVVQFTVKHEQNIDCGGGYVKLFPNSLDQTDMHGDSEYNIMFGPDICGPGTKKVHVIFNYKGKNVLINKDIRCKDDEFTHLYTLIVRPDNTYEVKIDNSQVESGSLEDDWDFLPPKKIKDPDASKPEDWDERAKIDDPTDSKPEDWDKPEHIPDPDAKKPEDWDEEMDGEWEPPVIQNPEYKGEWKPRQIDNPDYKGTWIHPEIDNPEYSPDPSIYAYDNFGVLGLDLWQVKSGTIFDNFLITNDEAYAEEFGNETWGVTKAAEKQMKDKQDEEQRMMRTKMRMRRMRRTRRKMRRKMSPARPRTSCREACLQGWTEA
# Procedure: (§1) A. Cell extracts blotted for phospho-STAT5, total STAT5, phospho-ERK, total ERK and actin from TF-1 TpoR cells after incubation with 10 or 20 μg/mL 4D7 or IgG for 4 or 8 hours, in presence of TPO. The last line indicates TPO withdrawal. B. Similar experiment using TPO-independent TF-1 TpoR CALR^del61 cells. C. Similar experiment using TPO-independent TF-1 TpoR CALR^del52 cells at 8 hours. D. Fraction of apoptotic sub-Go population of TF-1 TpoR CALR^del61 cells after 48 hours of 4D7 or IgG treatment (n=3). E. Western blot showing caspase 3 cleavage occurring within 24 hours of TPO withdrawal in TPO dependent TF-1 TpoR cells. An increase in cleaved caspase 3 is observed after 48 hours of treatment with 20 μg/mL 4D7 in TF-1 TpoR CALR^del61 and TF-1 TpoR CALR^del52 cells. F. Western blot of TpoR immunoprecipitation under non-reducing conditions showing associated CALR 50 kDa monomers and 100 kDa dimers (arrowheads) present only in TF-1 TpoR CALR^del61 disrupted by 8 hour treatment with 20 μg/mL 4D7 but not PBS or 20 μg/mL IgG. CALR monomers & dimers are detectable by polyclonal anti-wild type CALR or anti-mutant CALR monoclonal antibodies. Arrowheads, detected mutant CALR protein: asterisk, non-specific bands. G. Proposed model for the mechanism of action of 4D7 on mutant CALR. […]
# [2] = tested on: phospho-STAT1,3,5 and phospho-ERK in TF-1 cells expressing TpoR alone; test: Western blot of STAT/ERK signalling; assay type: cell-based, human; settings: 10 or 20 μg/mL for 4 or 8 hours, in presence of TPO
# Procedure: as §1, with “CALR. In the active form, mutant CALR dimers bound to TpoR form a constitutively activate receptor complex which is disrupted by 4D7 with blockade in STAT and ERK signalling. (Adapted from Masubuchi et al. (2020), Rivera et al (2021)).” for “CALR.”
# A. Cell extracts blotted for phospho-STAT1, total STAT1, phospho-STAT3, total STAT3 and actin from TF-1 TpoR cells after incubation with 10 or 20 μg/mL 4D7 or IgG for 4 or 8 hours as indicated. […] Cells were harvested and fixed and stained with propidium iodide and their DNA contents were analysed. […] E. Western blot showing specific co-immunoprecipitation of mutant CALR^del61 cells with TpoR anti-FLAG antibody under reducing conditions detected by total and mutant specific CALR antibodies. Arrowheads represent detected CALR protein. […]
molecule,measurement,setting,value
B1,presence of CALR disulfide-linked dimers and CALR monomers bound to TpoR,[1],diminished
same,inhibition of signalling,[2],no inhibition of signalling
